Test [1] addresses T1, human GITR (human, UniProt Q9Y5U5 26-241).
T1 sequence: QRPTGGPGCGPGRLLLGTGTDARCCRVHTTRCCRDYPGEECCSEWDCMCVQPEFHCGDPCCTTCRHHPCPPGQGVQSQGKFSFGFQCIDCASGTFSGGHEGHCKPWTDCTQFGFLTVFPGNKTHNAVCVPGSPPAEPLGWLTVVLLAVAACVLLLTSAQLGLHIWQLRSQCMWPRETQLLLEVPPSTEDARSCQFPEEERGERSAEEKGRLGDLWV
Briefly: cell-based or functional assay.

Test [2] concerns the target T1, human GITR. Briefly: cell-based or functional assay. This is another data set of the same source.
Test [3] addresses T2, human GITR-Fc (Enzo Life Sciences, ALX-522-061-C050) (human, UniProt Q9Y5U5 26-162).
T2 construct: Bought protein; not shown: Fc part of the bought fusion protein; not described
T2 sequence: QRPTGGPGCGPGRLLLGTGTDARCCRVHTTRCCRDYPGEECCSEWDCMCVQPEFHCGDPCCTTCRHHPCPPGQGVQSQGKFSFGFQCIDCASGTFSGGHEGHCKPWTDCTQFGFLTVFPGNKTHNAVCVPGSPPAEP
Briefly: ProteOn XPR36; human GITR-Fc amine-coupled on GLC chip, Nanobody injected at 6 concentrations. As for the experimental part: Affinity was determined on the Proteon XPR36. Briefly, after human GITR-Fc (Enzo Life Sciences, ALX-522-061-C050) was immobilized on a GLC chip via amine coupling, a range of 6 concentrations of different monovalent Nanobodies (representing each family) were injected. The Ko values were determined by using the calculated association rate and dissociation rate constants (Table 1) (ProteOn Manager 3.1.0, Version 3.1.0.6 (2011)).

The values below come from US20220411521A1 (Ablynx, published 2022).

Broadly, the Kd is the equilibrium constant for the complex coming apart. A lower Kd goes with a tighter complex. One may read the koff as the first-order rate constant of dissociation. A higher koff goes with fast dissociation. The term kon denotes the rate constant with which the complex forms.

B1: A023100118 (VHH)
chain: DVQLVESGGGVVQPGGSLRLSCAASETIFSIDSMAWYRQAPGKQRELVAAITGGGSPNYADSVKGRFTISSDVSKRTVYLQMNSLRPEDTALYYCNAEGQAGWGTALLDYWGQGTLVTVSSGGGGSGGGSEVQLVESGGGVVQPGGSLRLSCAASETIFSIDSMAWYRQAPGKQRELVAAITGGGSPNYADSVKGRFTISSDVSKRTVYLQMNSLRPEDTALYYCNAEGQAGWGTALLDYWGQGTLVTVSSGGGGSGGGSEVQLVESGGGVVQPGGSLRLSCAASETIFSIDSMAWYRQAPGKQRELVAAITGGGSPNYADSVKGRFTISSDVSKRTVYLQMNSLRPEDTALYYCNAEGQAGWGTALLDYWGQGTLVTVSSGGGGSGGGSEVQLVESGGGVVQPGGSLRLSCAASETIFSIDSMAWYRQAPGKQRELVAAITGGGSPNYADSVKGRFTISSDVSKRTVYLQMNSLRPEDTALYYCNAEGQAGWGTALLDYWGQGTLVTVSSGGGGSGGGSEVQLVESGGGVVQPGGSLRLSCAASETIFSIDSMAWYRQAPGKQRELVAAITGGGSPNYADSVKGRFTISSDVSKRTVYLQMNSLRPEDTALYYCNAEGQAGWGTALLDYWGQGTLVTVSSGGGGSGGGGSGGGGSGGGGSGGGGSGGGGSGGGGSEVQLVESGGGVVQPGGSLRLSCAASGFTFRSFGMSWVRQAPGKGPEWVSSISGSGSDTLYADSVKGRFTISRDNSKNTLYLQMNSLRPEDTALYYCTIGGSLSRSSQGTLVTVSSA
Take B1: in the test with human GITR [1], the “EC50, IFN-γ read-out, human T cell activation assay” value (shortened to “EC50, IFN-γ read-out”) amounted to 0.0426 nM and the “Maximal efficacy (%), human GITR ligand = 100%, IFN-γ read-out” value (“Maximal efficacy (%)” below) was 95.6%. For the same molecule, in the test with human GITR [2], the “EC50, HEK293_NF-κB luc reporter” value amounted to 0.0128 nM and the “Efficacy (%), human GITR ligand = 100%, HEK293_NF-κB luc reporter” value (shortened to “Efficacy (%) … HEK293_NF-κB luc reporter”) worked out at 140%.

B2: A023100101 (VHH)
chain: DVQLVESGGGVVQPGGSLRLSCAASETIFSIDSMAWYRQAPGKQRELVAAITGGGSPNYADSVKGRFTISSDVSKRTVYLQMNSLRPEDTALYYCNAEGQAGWGTALLDYWGQGTLVTVSSGGGGSGGGSEVQLVESGGGVVQPGGSLRLSCAASETIFSIDSMAWYRQAPGKQRELVAAITGGGSPNYADSVKGRFTISSDVSKRTVYLQMNSLRPEDTALYYCNAEGQAGWGTALLDYWGQGTLVTVSSGGGGSGGGSEVQLVESGGGVVQPGGSLRLSCAASETIFSIDSMAWYRQAPGKQRELVAAITGGGSPNYADSVKGRFTISSDVSKRTVYLQMNSLRPEDTALYYCNAEGQAGWGTALLDYWGQGTLVTVSSGGGGSGGGGSGGGGSGGGGSGGGGSGGGGSGGGGSEVQLVESGGGVVQPGGSLRLSCAASGFTFRSFGMSWVRQAPGKGPEWVSSISGSGSDTLYADSVKGRFTISRDNSKNTLYLQMNSLRPEDTALYYCTIGGSLSRSSQGTLVTVSSA
In the case of B2, in the test with human GITR [1], the “EC50, IFN-γ read-out” value was determined as 0.0642 nM and the “Maximal efficacy (%)” value was found to be 92.6%. Further, in the test with human GITR [2], the “EC50, HEK293_NF-κB luc reporter” value came out at 0.02 nM and the “Efficacy (%) … HEK293_NF-κB luc reporter” value is 136%.

B3: A023100127 (VHH)
chain: DVQLVESGGGVVQPGGSLRLSCAASGSIFSIDSMGWYRQAPGKQRELVAAITSSTNYADSVKGRFTISRDNSKNTVYLQMNSLRPEDTALYYCNLEGQAGWGTALINYWGQGTLVTVSSGGGGSGGGSEVQLVESGGGVVQPGGSLRLSCAASGSIFSIDSMGWYRQAPGKQRELVAAITSSTNYADSVKGRFTISRDNSKNTVYLQMNSLRPEDTALYYCNLEGQAGWGTALINYWGQGTLVTVSSGGGGSGGGSEVQLVESGGGVVQPGGSLRLSCAASGSIFSIDSMGWYRQAPGKQRELVAAITSSTNYADSVKGRFTISRDNSKNTVYLQMNSLRPEDTALYYCNLEGQAGWGTALINYWGQGTLVTVSSGGGGSGGGSEVQLVESGGGVVQPGGSLRLSCAASGSIFSIDSMGWYRQAPGKQRELVAAITSSTNYADSVKGRFTISRDNSKNTVYLQMNSLRPEDTALYYCNLEGQAGWGTALINYWGQGTLVTVSSGGGGSGGGGSGGGGSGGGGSGGGGSGGGGSGGGGSEVQLVESGGGVVQPGGSLRLSCAASGFTFRSFGMSWVRQAPGKGPEWVSSISGSGSDTLYADSVKGRFTISRDNSKNTLYLQMNSLRPEDTALYYCTIGGSLSRSSQGTLVTVSSA
As to B3, in the test with human GITR [1], the “EC50, IFN-γ read-out” value was 0.0587 nM and the “Maximal efficacy (%)” value came out at 86.8%. Besides, in the test with human GITR [2], the “EC50, HEK293_NF-κB luc reporter” value worked out at 0.0157 nM and the “Efficacy (%) … HEK293_NF-κB luc reporter” value was found to be 150%.

B4: A023100107 (VHH)
chain: DVQLVESGGGVVQPGGSLRLSCAASETIFSIDSMAWYRQAPGKQRELVAAITGGGSPNYADSVKGRFTISSDVSKRTVYLQMNSLRPEDTALYYCNAEGQAGWGTALLDYWGQGTLVTVSSGGGGSGGGSEVQLVESGGGVVQPGGSLRLSCAASETIFSIDSMAWYRQAPGKQRELVAAITGGGSPNYADSVKGRFTISSDVSKRTVYLQMNSLRPEDTALYYCNAEGQAGWGTALLDYWGQGTLVTVSSGGGGSGGGSEVQLVESGGGVVQPGGSLRLSCAASETIFSIDSMAWYRQAPGKQRELVAAITGGGSPNYADSVKGRFTISSDVSKRTVYLQMNSLRPEDTALYYCNAEGQAGWGTALLDYWGQGTLVTVSSGGGGSGGGSEVQLVESGGGVVQPGGSLRLSCAASETIFSIDSMAWYRQAPGKQRELVAAITGGGSPNYADSVKGRFTISSDVSKRTVYLQMNSLRPEDTALYYCNAEGQAGWGTALLDYWGQGTLVTVSSGGGGSGGGGSGGGGSGGGGSGGGGSGGGGSGGGGSEVQLVESGGGVVQPGGSLRLSCAASGFTFRSFGMSWVRQAPGKGPEWVSSISGSGSDTLYADSVKGRFTISRDNSKNTLYLQMNSLRPEDTALYYCTIGGSLSRSSQGTLVTVSSA
Regarding B4, in the test with human GITR [1], the “EC50, IFN-γ read-out” value was found to be 0.0646 nM and the “Maximal efficacy (%)” value was found to be 99.8%. Further, in the test with human GITR [2], the “EC50, HEK293_NF-κB luc reporter” value came to 0.0147 nM and the “Efficacy (%) … HEK293_NF-κB luc reporter” value was found to be 147%.

B5: A023100129 (VHH)
chain: DVQLVESGGGVVQPGGSLRLSCAASGSIFSIDSMGWYRQAPGKQRELVAAITSSTNYADSVKGRFTISRDNSKNTVYLQMNSLRPEDTALYYCNLEGQAGWGTALINYWGQGTLVTVSSGGGGSGGGSEVQLVESGGGVVQPGGSLRLSCAASGSIFSIDSMGWYRQAPGKQRELVAAITSSTNYADSVKGRFTISRDNSKNTVYLQMNSLRPEDTALYYCNLEGQAGWGTALINYWGQGTLVTVSSGGGGSGGGSEVQLVESGGGVVQPGGSLRLSCAASGSIFSIDSMGWYRQAPGKQRELVAAITSSTNYADSVKGRFTISRDNSKNTVYLQMNSLRPEDTALYYCNLEGQAGWGTALINYWGQGTLVTVSSGGGGSGGGSEVQLVESGGGVVQPGGSLRLSCAASGSIFSIDSMGWYRQAPGKQRELVAAITSSTNYADSVKGRFTISRDNSKNTVYLQMNSLRPEDTALYYCNLEGQAGWGTALINYWGQGTLVTVSSGGGGSGGGSEVQLVESGGGVVQPGGSLRLSCAASGSIFSIDSMGWYRQAPGKQRELVAAITSSTNYADSVKGRFTISRDNSKNTVYLQMNSLRPEDTALYYCNLEGQAGWGTALINYWGQGTLVTVSSGGGGSGGGGSGGGGSGGGGSGGGGSGGGGSGGGGSEVQLVESGGGVVQPGGSLRLSCAASGFTFRSFGMSWVRQAPGKGPEWVSSISGSGSDTLYADSVKGRFTISRDNSKNTLYLQMNSLRPEDTALYYCTIGGSLSRSSQGTLVTVSSA
As for B5, in the test with human GITR [1], the “EC50, IFN-γ read-out” value was 0.0515 nM and the “Maximal efficacy (%)” value was 108%. Besides, in the test with human GITR [2], the “EC50, HEK293_NF-κB luc reporter” value was 0.0118 nM and the “Efficacy (%) … HEK293_NF-κB luc reporter” value amounted to 146%.

B6: A0231051E01 (VHH)
VHH: EVQLVESGGGLVQAGGSLRLSCAASGSIFSFIVMGWYRQAPGEQRALVATVTSGGDTFYVDSVKDRFTISRDNAKNTVYLQMNSLKPEDTAVYFCYFTKVSPYKETTWGQGTLVTVSS
notes: Monovalent Nanobody expressed in E. coli with a triple Flag, HIS6 tag; also called A0231PMP051E01; PA0231PMP051E01.1; not shown: C-terminal triple FLAG and HIS6 tag
In test [3], B6 gave a Kd of 78 nM, a koff of 0.015 s⁻¹ and a kon of 190000 M⁻¹ s⁻¹.

B7: A023100105 (VHH)
chain: DVQLVESGGGVVQPGGSLRLSCAASGSIFSIDSMGWYRQAPGKQRELVAAITSSTNYADSVKGRFTISRDNSKNTVYLQMNSLRPEDTALYYCNLEGQAGWGTALINYWGQGTLVTVSSGGGGSGGGSEVQLVESGGGVVQPGGSLRLSCAASGSIFSIDSMGWYRQAPGKQRELVAAITSSTNYADSVKGRFTISRDNSKNTVYLQMNSLRPEDTALYYCNLEGQAGWGTALINYWGQGTLVTVSSGGGGSGGGSEVQLVESGGGVVQPGGSLRLSCAASGSIFSIDSMGWYRQAPGKQRELVAAITSSTNYADSVKGRFTISRDNSKNTVYLQMNSLRPEDTALYYCNLEGQAGWGTALINYWGQGTLVTVSSGGGGSGGGGSGGGGSGGGGSGGGGSGGGGSGGGGSEVQLVESGGGVVQPGGSLRLSCAASGFTFRSFGMSWVRQAPGKGPEWVSSISGSGSDTLYADSVKGRFTISRDNSKNTLYLQMNSLRPEDTALYYCTIGGSLSRSSQGTLVTVSSA
For B7, in the test with human GITR [1], the “EC50, IFN-γ read-out” value was 0.06 nM and the “Maximal efficacy (%)” value came to 97%.

B8: A0231052E08 (VHH)
VHH: EVQLVESGGGLVQAGGSLRLSCTGSRSIFSTYAMAWHRQAPGKQRELVGFIYWGGTTTYSDSVKGRFTISRDNAKNTMYLQMNSLKPEDAGVYYCNIYGSYALPWGQGTLVTVSS
notes: Monovalent Nanobody expressed in E. coli with a triple Flag, HIS6 tag; also called A0231PMP052E08; PA0231PMP052E08.1; not shown: C-terminal triple FLAG and HIS6 tag
Turning to B8, in test [3], the Kd came out at 120 nM, the koff was found to be 0.09 s⁻¹ and the kon was 750000 M⁻¹ s⁻¹.
